Results taken from publication doi:10.1101/586255v1.

Substrate: N[C@@H](CO)C(=O)O
Assay: purified protein, by the assay type
Settings: pH 7.6; 37.0 °C

Protein | Km
EcSerRS (Escherichia coli K-12) (protein) MLDPNLLRNEPDAVAEKLARRGFKLDVDKLGALEERRKVLQVKTENLQAERNSRSKSIGQAKARGEDIEPLRLEVNKLGEELDAAKAELDALQAEIRDIALTIPNLPADEVPVGKDENDNVEVSRWGTPREFDFEVRDHVTLGEMHSGLDFAAAVKLTGSRFVVMKGQIARMHRALSQFMLDLHTEQHGYSENYVPYLVNQDTLYGTGQLPKFAGDLFHTRPLEEEADTSNYALIPTAEVPLTNLVRGEIIDEDDLPIKMTAHTPCFRSEAGSYGRDTRGLIRMHQFDKVEMVQIVRPEDSMAALEEMTGHAEKVLQLLGLPYRKIILCTGDMGFGACKTYDLEVWIPAQNTYREISSCSNVWDFQARRMQARCRSKSDKKTRLVHTLNGSGLAVGRTLVAVMENYQQADGRIEVPEVLRPYMNGLEYIG | 4.706 ± 0.706 mM
SaSerRS (Staphylococcus aureus subsp. aureus NCTC 8325) (protein) MLDIRLFRNEPDTVKSKIELRGDDPKVVDEILELDEQRRKLISATEEMKARRNKVSEEIALKKRNKENADDVIAEMRTLGDDIKEKDSQLNEIDNKMTGILCRIPNLISDDVPQGESDEDNVEVKKWGTPREFSFEPKAHWDIVEELKMADFDRAAKVSGARFVYLTNEGAQLERALMNYMITKHTTQHGYTEMMVPQLVNADTMYGTGQLPKFEEDLFKVEKEGLYTIPTAEVPLTNFYRNEIIQPGVLPEKFTGQSACFRSEAGSAGRDTRGLIRLHQFDKVEMVRFEQPEDSWNALEEMTTNAEAILEELGLPYRRVILCTGDIGFSASKTYDLEVWLPSYNDYKEISSCSNCTDFQARRANIRFKRDKAAKPELAHTLNGSGLAVGRTFAAIVENYQNEDGTVTIPEALVPFMGGKTQISKPVK | 4.39 ± 0.654 mM
